These results are taken from paper doi:10.1101/2023.01.26.525744.

Test in all cases: NMR titration
Experiment [1] deals with cytoplasmic tail of human integrin β1 (aa758-798) (human) (UniProt P05556).
Experiment [2] addresses cytoplasmic tail of human integrin β3 (aa748-788) (human) (UniProt P05106).
For experiment [3], the target named is paxillin LIM2/3 tandem domain (aa380-499) (human) (UniProt P49023).

Sequence of UniProt P05556 (P05556 758-798): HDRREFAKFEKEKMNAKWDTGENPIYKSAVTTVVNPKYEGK

As usually defined, the Kd is the constant that tells how readily two partners part at equilibrium. A higher Kd goes with weaker binding. As for “paxillin LIM2/3 tandem domain (aa380-499) (from UniProt P49023-2 380-499) (domain or fragment)”, the results for the Kd in experiment [1] and in experiment [2] were 52 µM and 528 µM, respectively.

Turning to “cytoplasmic tail of human integrin β3 (aa748-788) (from UniProt P05106 748-788) (domain or fragment)”, in experiment [3], the Kd is 532 µM.
